Values joined by “and” are separate entries in the source; they are usually repeats but may differ in a detail not shown here. Equal values may be shown once.

Data set [1] deals with T47D human estrogen receptor positive breast carcinoma. As to the kind of experiment: Tumor growth and survival of Cyp treated mice bearing T47D breast carcinoma. The data set is classed as in vivo. Here is the method:
T47D estrogen receptor positive human breast cancer cells were from American Tissue Culture Collection (10801 University Boulevard, Manassas, Virginia, 20110-2209, United States).
First generation hybrid BDF1 (C57BL female x DBA/2 male) 6 weeks old, weighing 22-23 grams, specified pathogen free (SPF) hygienic category colonies were used. The animals were kept in macrolon cage at 22-24 0 C° (45-55% humidity), with a lightning regimen of 12/12 h light/dark. The animals had free access to tap water and were fed with a sterilized standard diet (Charles River VRF1, autoclavable, Germany) ad libitum.
T47D mammary tumor pieces (maintained in mouse tail, containing about 1.5×10^6 tumor cells) were implanted subcutaneously into the intrascapular region to develop the tumors. After 15 days, when the tumor-bearing mice were first treated, the sizes of the tumors were in the 0.27-0.34 cm^3 range. PLAP and Cyp were dissolved in 0.9% sodium chloride and applied subcutaneously (PLAP) or intraperitoneally (Cyp) in 50 μl volume. In the first group (n=7), animals received no treatment. In the second group (n=7), mice were administered 120-mg/kg of Cyp on day 15 followed by eleven consecutive treatments on every second day (days 17, 19, 21, 23, 25, 27, 29, 31, 35, 37, and 39) with the same dose. In the third group (n=7), treatment with Cyp (on the same days as in group 2) was accompanied by administration of 7.5 mg per kg of PLAP on days 15, 20, 25, 30, 35, and 40. Tumor volume was measured on days 15, 18, 21, 24, 27, 31, 35, 40, and 46, and body weight was measured on day 46. Then the animals were kept without additional treatment to determine survival rates.

Data set [2] concerns T47D human breast cancer tumor. As to the kind of experiment: Skeletal muscle proteins in the Cyp treated human T47D tumor model. The following applies: gastrocnemius, day 28; PLAP 7.5 mg per kg subcutaneously days 14, 17, 20, 23, 26; Cyp intraperitoneally days 15-27 every second day. The class given is in vivo, mice. Here is the method: PLAP and Cyp were dissolved in 0.9% sodium chloride and applied subcutaneously (PLAP) or intraperitoneally (Cyp) in […] volume. […] In the fourth and fifth groups mice also received Cyp on days 15, 17, 19, 21, 23, 25, and 27. On day 28, body weights were measured first followed by determining the tumor volumes. After the mice were put to death under anesthesia, the gastrocnemius muscles were excised to determine total proteins by using a Sigma kit.

In data set [3] the test system is L6 myoblasts. As to the kind of experiment: Proliferation of L6 myoblasts with or without IGF-1 (MTT assay). The class given is cell-based. The following applies: serum-free medium, 72 hours; IGF-1 50 nM, rPLAP 150 nM, PLAP 150 nM. On the procedure: L6 myoblasts were grown in 96-well plates in 10% FBS containing DMEM up to 30% confluency. Then the medium was changed to serum-free medium, and after 2 hours, cells were treated with IGF-1 (50 nM), or rPLAP (150 nM), or PLAP (150 nM) in the absence or presence of IGF-1 for 72 hours, followed by the MTT assay (absorbance; A540) as described by others assay [Carmichael, J, De Graff, W.G., Gazdar, A.F., Minna, J.D. and Mitchell, J.B. Evaluation of tetrazolium-based semiautomated colorimetric assay: Assessment of chemosensitivity testing. Cancer Res. 47, 936-942, 1987].
For orientation: Formazan colour is commonly taken as a measure of viable cells.

The subject of data set [4] is L6 myoblasts. Nature of the data set: Proliferation of L6 myoblasts in the presence of myostatin (MTT assay). The following applies: 96 hours. The class given is cell-based. On the procedure:
In this experiment, L6 myoblasts were seeded in 10% serum containing Dulbecco's modified Eagles (DMEM) medium in 96-well plates (n=8 for each treatment). After 24 hours at 30% confluence, the medium was changed to 2% serum-containing medium (0 time) and then treated with 0.25 μg/ml or 1 ug/ml myostatin (MSTN-from the R&D Systems-catalog no. 788-GB-010) in the absence or presence of 25 nM, 100 nM, or 200 nM PLAP for 96 hours. The relative number of viable cells (A540) was determined by the MTT assay [Carmichael, J, De Graff, W.G., Gazdar, A.F., Minna, J.D. and Mitchell, J.B. Evaluation of tetrazolium-based semiautomated colorimetric assay: Assessment of chemosensitivity testing. Cancer Res. 47, 936-942, 1987]. The value measured at 0 time is subtracted from the 96-hour values.

Data set [5] is described as follows: Spectrophotometric assay of PLAP enzyme activity. The class given is biochemical. Particulars: 10 mM 4-nitrophenylphosphate, 22° C., pH 9.8; 1 U = 1 umole substrate hydrolyzed/min. On the procedure: PLAP as determined by sodium dodecyl sulfate-polyacrylamide gel electrophoresis (SDS-PAGE). The enzyme activity of PLAP was assayed using a spectroscopic method to monitor the hydrolysis of 4-nitrophenylphosphate (as an increase in absorbance at 410 nm) at room temperature (22° C.) as described in [Chang, G.-G., Shiao, M.-S., Lec, K.-R. and Wu, J.-J., Modification of human placental alkaline phosphatase by periodate-oxidized 1,N6-ethenoadenosine monophosphate. Biochem. J., 272, 683-690, 1990]. Activity analysis of 5-10-μg purified enzyme was performed in 1 mI. incubation volume containing 50 mM Na2CO3/NaHCO3, 10 mM MgCl2, 10 mM 4-nitrophenylphosphate at pII 9.8. The extinction coefficient of 4-nitrophenol was taken as 1.62×10^4 M^−1 cm^−1. An enzyme activity of I U (unit) is defined as 1 umole substrate hydrolyzed/min at 22° C. at pH 9.8. The pure PLAP was further identified by sequence analysis performed by the Mayo Clinic Protein Core Facility (Rochester, MN, US). The specific activity of purified PLAP was 685 Units per mg protein.

The nature of data set [6]: ATP as substrate of alkaline phosphatases (unpublished data). The data set is classed as biochemical. Particulars: compared to IALP or TNAP. From the text: This invention can also use an alkaline phosphatase (AP) which is a hybrid derivative of two APs. For example, in such a hybrid one critical segment may originate from PLAP accounting for the heat stability, and another segment may originate from a different AP accounting for a higher catalytic phosphatase activity or another useful property. As an example, envisioned in the disclosure, such hybrid may contain up to roughly 50% of the sequence of PLAP providing stability, and up to roughly 50% of the sequence of another human AP providing the catalytic alkaline phosphatase activity. The rationale for using such hybrid is that of the APs, PLAP has by far the greatest stability in the circulation, while other APs may have greater catalytic activities towards some specific substrates.

The conditions of data set [7]: purified PLAP, literature (Clubb et al. 1965); cited from earlier work.
Data set [8] deals with PC-3 human prostate adenocarcinoma tumor. As to the kind of experiment: Subcutaneously administered PLAP in the cachectic PC-3 mouse tumor model. Particulars: day 28. The class given is in vivo, mice. From the text:
PC-3 human prostate cancer cell-derived aggressive tumors are cachectic depending on the mouse strain used for tumor development. In the following experiment, a cachectic mouse model of human prostate tumor was used.
PC-3 human prostate adenocarcinoma tissue pieces (0.1 cm^3 volume) were implanted subcutaneously into the intrascapular region of 6 weeks old female mice [homozygous line of C.B .-171cr scid/scid] to develop the tumors. The mice were kept at specified pathogen free (SPF) hygienic levels. In the first group of mice (7 mice), no tumors were developed (tumor free control). In the second group of mice (7 mice), tumors were developed but remained untreated. In the third group of mice (7 mice), on days 8, 11, 14, 17, 21 and 25 after transplantation of PC-3 tumors, mice were administered 4 mg/kg of PLAP subcutaneously. The weight and total protein content of m. gastrocnemius (using a protein determination kit from Sigma), tumor weight, lean body weight (total weight minus tumor weight), and the weight of abdominal fat tissue were determined on day 28 (after tumor transplantation).

Setting [9] is: Cyp 120 mg/kg intraperitoneally, PLAP 7.5 mg/kg subcutaneously.
[10] abbreviates: numbers in parentheses, n=7 per group.
The mark [11] stands for this setting: m. gastrocnemius, PLAP 4 mg/kg subcutaneously on days 8, 11, 14, 17, 21, 25.

For the molecule `O.O=P1(N(CCCl)CCCl)NCCCO1` (centres unmarked) [Cyp, 2-[Bis (2-chloroethyl)amino] tetrahydro-2H-1,3,2-oxazaphosphorine 2-oxide monohydrate], the “Tumor volume Day 18” value in data set [1] (Cyp 120 mg/kg intraperitoneally every second day from day 15, PLAP 7.5 mg/kg subcutaneously every 5 days) came out at 0.33 ± 0.11 cm^3. In data set [1] (setting [9]), the “Tumor volume Day 21” value is listed as 0.56 ± 0.10 cm^3, the “Tumor volume Day 24” value was 0.72 ± 0.20 cm^3, the “Tumor volume Day 27” value was determined as 0.91 ± 0.22 cm^3 and the “Tumor volume Day 31” value is on record as 1.06 ± 0.17 cm^3. In data set [1] (setting [9]), the “Tumor volume Day 35” value is on record as 1.22 ± 0.32 cm^3, the “Tumor volume Day 40” value is 1.68 ± 0.29 cm^3 and the “Tumor volume Day 46” value turned out to be 1.82 ± 0.24 cm^3. Besides, the “Survival Mean” value in data set [1] (T47D tumor bearing animals, n=7, monohydrate) was 49 days and 49.3 days. In addition, the “body weight less compared to the untreated group” value in data set [1] (body weight measured on day 46) is given as 1.4%. Moreover, in data set [1] (day of first treatment, Cyp 120 mg/kg intraperitoneally, PLAP 7.5 mg/kg subcutaneously), the “Tumor volume Day 15” value is listed as 0.30 ± 0.11 cm^3. Also, in data set [1] (setting [10]), the “number of mice alive Day 35” value came to 7, the “number of mice alive Day 40” value stood at 7 and the “number of mice alive Day 46” value stood at 5. Besides, the Survival % in data set [1] (relative to untreated (None = 100)) was found to be 129%. Besides, the “Total Muscle Protein” value in data set [2] was 11.31 ± 0.43 mg per 100 mg of muscle weight.
“IGF-1: insulin like growth factor-1 [reference compound]”: in the data set on L6 myoblasts [3], the “L6 myoblast proliferation (A540) (minus 0-time value)” value is on record as 0.280 ± 0.030 A540.
With “Myostatin: myostatin (MSTN) from R&D Systems, catalog no. 788-GB-010 [reference compound]”, the “L6 myoblast proliferation minus 0-time value (A540)” value is reported as 0.214 ± 0.032 A540 with L6 myoblasts [4] (Myostatin 0.25 μg/ml, no PLAP, 2% serum) and 0.175 ± 0.030 A540 in the data set with L6 myoblasts [4] (Myostatin 1.0 μg/ml, no PLAP, 2% serum).

B1: PLAP: highly purified native placental alkaline phosphatase derived from human placenta via conventional purification methods (protein, UniProt P05187 23-506, looked up)
Alkaline phosphatase, …: IIPVEEENPDFWNREAAEALGAAKKLQPAQTAAKNLIIFLGDGMGVSTVTAARILKGQKKDKLGPEIPLAMDRFPYVALSKTYNVDKHVPDSGATATAYLCGVKGNFQTIGLSAAARFNQCNTTRGNEVISVMNRAKKAGKSVGVVTTTRVQHASPAGTYAHTVNRNWYSDADVPASARQEGCQDIATQLISNMDIDVILGGGRKYMFRMGTPDPEYPDDYSQGGTRLDGKNLVQEWLAKRQGARYVWNRTELMQASLDPSVTHLMGLFEPGDMKYEIHRDSTLDPSLMEMTEAALRLLSRNPRGFFLFVEGGRIDHGHHESRAYRALTETIMFDDAIERAGQLTSEEDTLSLVTADHSHVFSFGGYPLRGSSIFGLAPGKARDRKAYTVLLYGNGPGYVLKDGARPDVTESESGSPEYRQQSAVPLDEETHAGEDVAVFARGPQAHLVHGVQEQTFIAHVMAFAACLEPYTACDLAPPAGTTD
Turning to B1, the specific activity in data set [5] is on record as 685 Units per mg protein. Also, in data set [6], the ATP as substrate entry is given as “weak substrate”. In addition, the “half-life time in human circulation” value in data set [7] is “about 7 days”. In addition, the “Total Muscle Protein” value in data set [2] is 13.20 ± 0.38 mg per 100 mg of muscle weight. In the data set with L6 myoblasts [3], the “L6 myoblast proliferation (A540) (minus 0-time value)” value is 0.267 ± 0.025 A540. Further, the “L6 myoblast proliferation minus 0-time value (A540)” value in the data set with L6 myoblasts [4] (PLAP 25 nM, Myostatin 0.25 μg/ml) is 0.325 ± 0.038 A540; in the data set with L6 myoblasts [4] (PLAP 25 nM, Myostatin 1.0 μg/ml), 0.300 ± 0.023 A540; in the data set with L6 myoblasts [4] (PLAP 25 nM, No Myostatin) it was 0.410 ± 0.025 A540; with L6 myoblasts [4] (PLAP 100 nM, Myostatin 0.25 μg/ml) it was 0.430 ± 0.024 A540; in the data set on L6 myoblasts [4] (PLAP 100 nM, Myostatin 1.0 μg/ml), 0.402 ± 0.027 A540; in the data set with L6 myoblasts [4] (PLAP 100 nM, No Myostatin), 0.541 ± 0.022 A540. Also, the “L6 myoblast proliferation minus 0-time value (A540)” value in the data set with L6 myoblasts [4] (PLAP 200 nM, Myostatin 0.25 μg/ml) worked out at 0.542 ± 0.069 A540; in the data set with L6 myoblasts [4] (PLAP 200 nM, Myostatin 1.0 μg/ml) it was 0.500 ± 0.033 A540; in the data set on L6 myoblasts [4] (PLAP 200 nM, No Myostatin), 0.707 ± 0.032 A540. Further, the “inhibition of tumor growth” value in data set [8] (PLAP 4 mg/kg subcutaneously) was found to be 32%. In addition, the “loss of lean body weight” value in data set [8] (PLAP treated tumor (41% in untreated)) was 18%. Moreover, the “loss of abdominal fat tissue” value in data set [8] (PLAP treated tumor (46% in untreated)) was 12%. The “Tumor Weight” value in data set [8] (PLAP 4 mg/kg subcutaneously) was 2.9 ± 0.4 g. The “Muscle Mass” value in data set [8] (setting [11]) is given as 93 ± 9 mg. For the same molecule, the “Muscle Protein” value in data set [8] (setting [11]) is 13.3 ± 1.3 mg/100 mg of muscle weight. In addition, the “Lean Body Weight” value in data set [8] (total weight minus tumor weight, PLAP 4 mg/kg subcutaneously) is listed as 25.9 ± 2.8 g. Also, the “Abdominal Fat Tissue” value in data set [8] (weight, PLAP 4 mg/kg subcutaneously) amounted to 0.66 ± 0.07 g.
